Experimental data taken from patent US20260015426A1 (23ANDME, published 2026).
Positions count from the first letter of the chain named. Numbers in names are those of the source. Values belong to the binder of their own block, whether it stands above or below them.

What was measured:
[1] = target: T1, human IL1RAP (hu-IL1RAP) on human cells (human, UniProt Q9NPH3 21-570); test: cell-based or functional assay
T1 sequence: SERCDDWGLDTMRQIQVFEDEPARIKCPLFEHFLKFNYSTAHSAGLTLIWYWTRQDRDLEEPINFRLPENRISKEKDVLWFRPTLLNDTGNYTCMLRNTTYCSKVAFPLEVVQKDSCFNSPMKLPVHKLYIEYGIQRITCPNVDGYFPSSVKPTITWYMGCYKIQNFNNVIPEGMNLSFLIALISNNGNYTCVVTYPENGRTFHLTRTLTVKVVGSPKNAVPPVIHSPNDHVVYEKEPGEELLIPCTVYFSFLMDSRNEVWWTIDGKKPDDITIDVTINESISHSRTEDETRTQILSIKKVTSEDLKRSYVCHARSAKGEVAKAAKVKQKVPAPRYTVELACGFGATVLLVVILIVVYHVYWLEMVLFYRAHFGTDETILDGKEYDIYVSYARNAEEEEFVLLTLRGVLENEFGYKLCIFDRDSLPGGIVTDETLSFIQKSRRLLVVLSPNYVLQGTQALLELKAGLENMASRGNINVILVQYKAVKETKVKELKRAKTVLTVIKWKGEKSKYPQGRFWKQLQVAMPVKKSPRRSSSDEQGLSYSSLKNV

[2] = target: T2, hu-M-IL1RAP construct, positions S21-T367 (extracellular domain of the membrane form of human IL1RAP) (human, UniProt Q9NPH3 21-367); test: BLI (OCTET), mAb captured, 25 C
T2 construct: Biotinylated when captured on the Biacore chip
T2 sequence: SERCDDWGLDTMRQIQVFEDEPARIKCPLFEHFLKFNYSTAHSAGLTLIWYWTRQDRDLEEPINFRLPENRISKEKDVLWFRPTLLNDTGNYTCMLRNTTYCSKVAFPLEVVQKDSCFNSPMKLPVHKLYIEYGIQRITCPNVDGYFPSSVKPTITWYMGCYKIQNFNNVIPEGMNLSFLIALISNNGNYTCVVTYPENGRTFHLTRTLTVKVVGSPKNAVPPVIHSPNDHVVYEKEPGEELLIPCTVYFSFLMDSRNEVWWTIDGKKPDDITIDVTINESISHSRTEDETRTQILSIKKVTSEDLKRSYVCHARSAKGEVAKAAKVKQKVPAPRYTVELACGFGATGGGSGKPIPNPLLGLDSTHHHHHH
Description: All samples were placed in black 96-well plates and the experiment was performed at 25° C. […] The biosensors were equilibrated in experimental buffer at 25° C. for ten minutes prior to starting the experiment.
The resulting BLI signal from analyte association and dissociation from the immobilized antibody was analyzed using the Octet Data Analysis software (Pall ForteBio). First, a reference subtraction was performed on all recorded traces using the reference well (biosensor that underwent the same steps as experimental wells but no analyte for the Association step), then all the traces were aligned to the beginning of the Association step.

[3] = target: T1, human IL1RAP (hu-IL1RAP) on human cells; test: cell-based or functional assay; remark: listed apart in the source
[4] = target: T2, hu-M-IL1RAP construct, positions …; test: SPR, 37 C
Description: (§1) Surface plasmon resonance (SPR) analysis was used to determine binding affinity for hu-M-IL1RAP of the purified Fabs containing the selected single, double, and triple mutations in either the VL or VH regions using a BIACORE™ 8K instrument. […] For kinetics measurements, 5 nM biotinylated hu-M-IL1RAP was captured at 10 μL/min to achieve ˜50 response units in the second flow cell (FC2). FC1 was kept as a reference. […] The sensorgrams were recorded and subjected to reference and buffer subtraction before data analysis with the BIACORE® 8K Evaluation Software (version 1.1.1.7442). Association rates (kₒₙ) and dissociation rates (koff) were calculated using a simple one-to-one Langmuir binding model. The equilibrium dissociation constant (KD) was calculated as the ratio of koff/kₒₙ.

[5] = target: T3, cyno-M-IL1RAP construct, positions S21-T367 (cynomolgus monkey, UniProt P59822 21-367 (rhesus entry)); test: SPR, 37 C
T3 construct: Biotinylated when captured on the Biacore chip; also called cy-M-IL1RAP
T3 sequence: T2 sequence with L183F, T273P, K326T
Description: as §1

[6] = target: T1, human IL1RAP (hu-IL1RAP) on human cells; test: cell-based or functional assay; remark: listed apart in the source
[7] = target: T2, hu-M-IL1RAP construct, positions …; test: SPR, IgG analyte (apparent), 37 C, pH 6
Description: as §1

[8] = target: T3, cyno-M-IL1RAP construct, positions …; test: SPR, IgG analyte (apparent), 37 C, pH 6
Description: as §1

[9] = target: T2, hu-M-IL1RAP construct, positions …; test: SPR, IgG analyte (apparent), 37 C, pH 7.4
Description: as §1

[10] = target: T3, cyno-M-IL1RAP construct, positions …; test: SPR, IgG analyte (apparent), 37 C, pH 7.4
Description: as §1

[11] = target: T2, hu-M-IL1RAP construct, positions …; test: SPR, IgG analyte (apparent), pH 7.4, 37 C
[12] = target: T3, cyno-M-IL1RAP construct, positions …; test: SPR, IgG analyte (apparent), pH 7.4, 37 C

NK cells, IL-33+IL-12 stimulated IFN-γ, IC50 [1]: 2.9 nM
PHLF, IL-1α stimulated IL-8, IC50 [1]: 3.96 nM
PHLF, IL-36β stimulated IL-8, IC50 [1]: 0.284 nM
monocytes, IL-1β stimulated IL-6, IC50 [1]: 0.733 nM
Kd [2]: 0.446 nM
B1: c11C5_C59Y (C59Y variant of c11C5) (antibody, IgG1, V domains shown)
VH: EVQLVESGGGLVKPGGSLKLSCAASGFTFSNYAMSWVRQTPEKRLEWVATVTEGGDYNYYLDDVKGRFTISRDNANDNLYLQMSHLKSEDSARYYCARDRWPYFFDYWGQGTTLTVSS
VL: DIQMTQSPASLSVSVGETVTITCRASENIYSNLAWYQQKQGRSPQLLVYGAKNLADGVPSRFSGSGSGTQYSLNINSLQSEDFGTYYCQHFWTTPRTFGGGTKLEIK
notes: Murine VL and VH, human CL and IgG1 CH1-CH3 domains with effectorless N297G

HEK-Blue, IL-1β, IC50 [3]: 0.705 nM
HEK-Blue, IL-33, IC50 [3]: 2.25 nM
Kd [2]: 0.37 nM
B2: m11C5 (recombinant murine 11C5) (antibody, mouse IgG2a, V domains shown)
VH: B1 VH with Y60C
VL: B1 VL
notes: Murine IgG2a constant domains

KD (6)/KD (7.4) [4]: 3.3 ratio
KD (7.4) ratio to YIS [4]: 1 ratio
koff (6) ratio to YIS [4]: 1 ratio
KD (6)/KD (7.4) [5]: 2.5 ratio
KD (7.4) ratio to YIS [5]: 1 ratio
koff (6) ratio to YIS [5]: 1 ratio
HEK-Blue, IL-1β, % inhibition at 100 nM (IgG) [6]: 100%
HEK-Blue, IL-1β, IC50 (IgG) [6]: 0.251 nM
HEK-Blue, IL-33, % inhibition at 100 nM (IgG) [6]: 98%
HEK-Blue, IL-33, IC50 (IgG) [6]: 0.425 nM
HEK-Blue, IL-36α, % inhibition at 100 nM (IgG) [6]: 100%
HEK-Blue, IL-36α, IC50 (IgG) [6]: 0.232 nM
Kd [7]: 0.0705 nM
koff [7]: 0.00015 s⁻¹
kon [7]: 2.12e+06 M⁻¹ s⁻¹
Kd [8]: 0.0345 nM
koff [8]: 6.94e-05 s⁻¹
kon [8]: 2.01e+06 M⁻¹ s⁻¹
Kd [9]: 0.0213 nM
koff [9]: 3.94e-05 s⁻¹
kon [9]: 1.85e+06 M⁻¹ s⁻¹
Kd [10]: 0.014 nM
koff [10]: 3e-05 s⁻¹
kon [10]: 2.14e+06 M⁻¹ s⁻¹
Kd [11]: 0.013 nM
koff [11]: 3.33e-05 s⁻¹
kon [11]: 2.55e+06 M⁻¹ s⁻¹
Kd [12]: 0.0116 nM
koff [12]: 3.34e-05 s⁻¹
kon [12]: 2.87e+06 M⁻¹ s⁻¹
B3: h11C5 variant K13/H3 IgG (YIS) (antibody)
heavy: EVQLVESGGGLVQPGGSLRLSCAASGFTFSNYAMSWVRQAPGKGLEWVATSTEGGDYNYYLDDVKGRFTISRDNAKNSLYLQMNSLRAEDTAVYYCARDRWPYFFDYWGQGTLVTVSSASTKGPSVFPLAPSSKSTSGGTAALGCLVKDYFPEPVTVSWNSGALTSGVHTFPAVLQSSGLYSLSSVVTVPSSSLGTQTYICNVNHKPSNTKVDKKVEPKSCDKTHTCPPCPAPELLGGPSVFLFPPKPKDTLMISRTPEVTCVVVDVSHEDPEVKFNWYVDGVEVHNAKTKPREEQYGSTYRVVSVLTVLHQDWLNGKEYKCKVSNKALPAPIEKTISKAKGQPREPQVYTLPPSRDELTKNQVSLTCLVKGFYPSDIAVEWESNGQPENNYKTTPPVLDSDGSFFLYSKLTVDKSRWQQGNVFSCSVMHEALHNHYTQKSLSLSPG
light: DIQMTQSPSSLSASVGDRVTITCRASENIYSNLAWYQQKPGKSPKLLVYGYKNLADGVPSRFSGSGSGTDYTLTISSLQPEDFATYYCQHFITTPRTFGGGTKVEIKRTVAAPSVFIFPPSDEQLKSGTASVVCLLNNFYPREAKVQWKVDNALQSGNSQESVTEQDSKDSTYSLSSTLTLSKADYEKHKVYACEVTHQGLSSPVTKSFNRGEC
notes: Human IgG1 N297G; also called 11C5-YIS

KD (6)/KD (7.4) [4]: 10 ratio
KD (7.4) ratio to YIS [4]: 0.66 ratio
koff (6) ratio to YIS [4]: 2.8 ratio
KD (6)/KD (7.4) [5]: 4.1 ratio
KD (7.4) ratio to YIS [5]: 1.7 ratio
koff (6) ratio to YIS [5]: 3 ratio
HEK-Blue, IL-1β, % inhibition at 100 nM (IgG) [6]: 100%
HEK-Blue, IL-1β, IC50 (IgG) [6]: 0.361 nM
HEK-Blue, IL-33, % inhibition at 100 nM (IgG) [6]: 99%
HEK-Blue, IL-33, IC50 (IgG) [6]: 1.52 nM
HEK-Blue, IL-36α, % inhibition at 100 nM (IgG) [6]: 100%
HEK-Blue, IL-36α, IC50 (IgG) [6]: 0.477 nM
Kd [7]: 0.141 nM
koff [7]: 0.000414 s⁻¹
kon [7]: 2.94e+06 M⁻¹ s⁻¹
Kd [8]: 0.0993 nM
koff [8]: 0.000215 s⁻¹
kon [8]: 2.16e+06 M⁻¹ s⁻¹
Kd [9]: 0.014 nM
koff [9]: 2.69e-05 s⁻¹
kon [9]: 1.93e+06 M⁻¹ s⁻¹
Kd [10]: 0.0244 nM
koff [10]: 4.62e-05 s⁻¹
kon [10]: 1.89e+06 M⁻¹ s⁻¹
B4: h11C5 variant K13/H2 IgG (YID) (antibody, V domains shown)
VH: EVQLVESGGGLVQPGGSLRLSCAASGFTFSNYAMSWVRQAPGKGLEWVATVTEGGDYNYYLDDVKGRFTISRDNAKNSLYLQMNSLRAEDTAVYYCARDDWPYFFDYWGQGTLVTVSS
VL: DIQMTQSPSSLSASVGDRVTITCRASENIYSNLAWYQQKPGKSPKLLVYGYKNLADGVPSRFSGSGSGTDYTLTISSLQPEDFATYYCQHFITTPRTFGGGTKVEIKR
notes: Human IgG1 N297G; also called 11C5-YID

KD (6)/KD (7.4) [4]: 4.3 ratio
KD (7.4) ratio to YIS [4]: 1.1 ratio
koff (6) ratio to YIS [4]: 1.2 ratio
KD (6)/KD (7.4) [5]: 4.6 ratio
KD (7.4) ratio to YIS [5]: 1.6 ratio
koff (6) ratio to YIS [5]: 1.7 ratio
HEK-Blue, IL-1β, % inhibition at 100 nM (IgG) [6]: 100%
HEK-Blue, IL-1β, IC50 (IgG) [6]: 0.429 nM
HEK-Blue, IL-33, % inhibition at 100 nM (IgG) [6]: 87%
HEK-Blue, IL-33, IC50 (IgG) [6]: 2.5 nM
HEK-Blue, IL-36α, % inhibition at 100 nM (IgG) [6]: 96%
HEK-Blue, IL-36α, IC50 (IgG) [6]: 0.418 nM
Kd [7]: 0.0962 nM
koff [7]: 0.000182 s⁻¹
kon [7]: 1.9e+06 M⁻¹ s⁻¹
Kd [8]: 0.101 nM
koff [8]: 0.000121 s⁻¹
kon [8]: 1.2e+06 M⁻¹ s⁻¹
Kd [9]: 0.0226 nM
koff [9]: 3.87e-05 s⁻¹
kon [9]: 1.71e+06 M⁻¹ s⁻¹
Kd [10]: 0.0221 nM
koff [10]: 4.51e-05 s⁻¹
kon [10]: 2.04e+06 M⁻¹ s⁻¹
B5: h11C5 variant K17/H3 IgG (YKS) (antibody, V domains shown)
VH: B4 VH with V51S, D100R
VL: B4 VL with I92K
notes: Human IgG1 N297G; also called 11C5-YKS

HEK-Blue, IL-1β, IC50 [3]: 3.12 nM
HEK-Blue, IL-33, % inhibition at 100 nM [3]: 80%
HEK-Blue, IL-33, IC50 [3]: 24 nM
Kd [2]: 1.06 nM
B6: h11C5 (humanized 11C5 mAb) (antibody, human IgG1, kappa, N297G, V domains shown)
VH: B4 VH with Y60C, D100R
VL: B4 VL with S43A, Y51A, I92W
notes: Human IgG1/kappa
